The source of these data is paper PMC13395437, “A single DNA methylation site regulates cell fate during Clostridioides difficile sporulation”.

In data set [1] the target is T1, Spo0A DNA-binding domain (Spo0A145-247-His6) (UniProt P52938).
T1 sequence: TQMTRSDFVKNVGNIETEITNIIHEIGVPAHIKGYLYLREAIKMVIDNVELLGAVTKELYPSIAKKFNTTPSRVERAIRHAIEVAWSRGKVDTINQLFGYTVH
Description: EMSA. Particulars: FP: 1 nM dsDNA, 50 mM Tris-HCl pH 8, 100 mM KCl, 2.5 mM MgCl2, 0.2 mM DTT, 10% glycerol, 2 µg salmon sperm DNA, 10 min, RT; EMSA: 20 fmol DNA, 10 mM Tris-HCl ….

Data set [2] addresses T2, Spo0A DNA-binding domain (Spo0A145-247-His6) (UniProt P52938 145-247).
T2 sequence: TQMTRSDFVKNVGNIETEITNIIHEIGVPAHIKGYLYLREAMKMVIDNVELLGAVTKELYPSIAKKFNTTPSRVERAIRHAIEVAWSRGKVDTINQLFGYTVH
Description: fluorescence polarization; FP: 1 nM dsDNA, 50 mM Tris-HCl pH 8, 100 mM KCl, 2.5 mM MgCl2, 0.2 mM DTT, 10% glycerol, 2 µg salmon sperm DNA, 10 min, RT; EMSA: 20 fmol DNA, 10 mM Tris-HCl pH 7.6, 1 mM EDTA, 50 mM NaCl, 1 mM DTT, 5% glycerol, 30 min, 37 C. The note with it: protein: recombinant; tags: C-terminal His6; label: 6FAM on strand 1 (5' primer); blunt. For orientation: Polarisation of emitted light reports the rotation of a fluorescent probe.

As to “CCTCCTCTTTTGTTTATATTAAGAATTGTAACAAAGAGGAGTAATTTTATTTGTCATAATCGGTTTTAAAAATCAAAAAATATTAATACATTTTTTTTGACTTTTGACATATTAAGCCTTCCAAATTATCGTATTCACTTACGGTTATTTCTTCTATTTCTAATTTTTCCATTATTATATTCAATATTTTTACACCAGCAGTTATAATATCCGCACGTTTTTCTTGTAGCCCTTTTAAGTTCTTTTTATCAC (double strand) [Me3* PspoIIE EMSA fragment]”, the binding result in data set [1] is “binds”.
Same read-out and setting: then “CCTCCTCTTTTGTTTATATTAAGAATTGTAACAAAGAGGAGTAATTTTTTTTGTCATAATCGGTTTTAAAAATCAAAAAATATTAATACATTTTTTTTGACTTTTGACATATTAAGCCTTCCAAATTATCGTATTCACTTACGGTTATTTCTTCTATTTCTAATTTTTCCATTATTATATTCAATATTTTTACACCAGCAGTTATAATATCCGCACGTTTTTCTTGTAGCCCTTTTAAGTTCTTTTTATCAC (double strand) [WT PspoIIE EMSA fragment]”, with “binds”.

B1: Me3* PspoIIE FP probe (dsDNA)
DNA 1: AAAACCGATTATGACAAATAAAATTACTCC
DNA 2: GGAGTAATTTTATTTGTCATAATCGGTTTT
B1: in data set [2], the binding result was “binds”.

B2: WT PspoIIE FP probe (dsDNA)
DNA 1: AAAACCGATTATGACAAAAAAAATTACTCC
DNA 2: GGAGTAATTTTTTTTGTCATAATCGGTTTT
Turning to B2, the binding result in data set [2] was “binds”.
